Experimental data from patent publication US20090175873A1 (Scripps Research, published 2009).
One block for each molecule: values may come before it. Numbered stars: 1 amine (or outer) side, 2 acyl side, 3 side chain; on linkers, the order of the positions; unused ones are H or OH. Square brackets hold non-standard residues; d marks the D form. * marks the point of attachment. AzaAsn = aza-asparagine, NC(=O)CN(N[*:1])C(=O)[*:2]; (S,S)‑EPCOOEt = (S,S)-epoxide ethyl ester; CH:CH‑COOEt = CCOC(=O)/C=C/*; Suc = O=C(CCC(=O)[*:2])[*:1]; Cbz = O=C(OCc1ccccc1)*

What was measured:
[1] = biological target: recombinant legumain (Homo sapiens (Human)) (UniProt Q99538); test: cell-based or functional assay
human legumain = biological target: T1, human legumain (human, UniProt Q99538 19-323, limits assumed); test: cell-based or functional assay
T1 sequence: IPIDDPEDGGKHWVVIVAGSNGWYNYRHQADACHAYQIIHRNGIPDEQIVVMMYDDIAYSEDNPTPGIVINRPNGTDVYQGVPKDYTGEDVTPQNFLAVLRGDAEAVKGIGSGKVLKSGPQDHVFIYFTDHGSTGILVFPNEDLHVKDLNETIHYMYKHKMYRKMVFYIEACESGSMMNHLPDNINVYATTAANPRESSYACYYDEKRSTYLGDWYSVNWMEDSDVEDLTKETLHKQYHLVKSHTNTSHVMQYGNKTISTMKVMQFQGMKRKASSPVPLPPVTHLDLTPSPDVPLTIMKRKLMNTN

recombinant legumain = biological target: T2, recombinant legumain (Homo sapiens (Human), UniProt Q99538 19-323, limits assumed); test: cell-based or functional assay
T2 sequence: T1 sequence

caspase 9, P55211 = biological target: T3, caspase 9, P55211
T3 chain: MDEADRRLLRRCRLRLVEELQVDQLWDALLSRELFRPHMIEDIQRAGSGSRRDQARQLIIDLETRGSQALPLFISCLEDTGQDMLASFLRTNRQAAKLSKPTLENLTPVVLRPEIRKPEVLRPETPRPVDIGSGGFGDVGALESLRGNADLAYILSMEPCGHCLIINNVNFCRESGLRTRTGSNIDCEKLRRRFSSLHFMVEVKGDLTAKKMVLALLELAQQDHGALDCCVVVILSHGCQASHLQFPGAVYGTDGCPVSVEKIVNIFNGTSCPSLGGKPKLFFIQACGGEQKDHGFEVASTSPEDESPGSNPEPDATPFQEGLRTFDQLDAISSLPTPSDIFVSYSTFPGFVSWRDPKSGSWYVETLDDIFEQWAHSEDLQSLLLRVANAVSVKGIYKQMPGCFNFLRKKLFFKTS

progelatinase A, P08253 = biological target: T4, progelatinase A, P08253
T4 chain: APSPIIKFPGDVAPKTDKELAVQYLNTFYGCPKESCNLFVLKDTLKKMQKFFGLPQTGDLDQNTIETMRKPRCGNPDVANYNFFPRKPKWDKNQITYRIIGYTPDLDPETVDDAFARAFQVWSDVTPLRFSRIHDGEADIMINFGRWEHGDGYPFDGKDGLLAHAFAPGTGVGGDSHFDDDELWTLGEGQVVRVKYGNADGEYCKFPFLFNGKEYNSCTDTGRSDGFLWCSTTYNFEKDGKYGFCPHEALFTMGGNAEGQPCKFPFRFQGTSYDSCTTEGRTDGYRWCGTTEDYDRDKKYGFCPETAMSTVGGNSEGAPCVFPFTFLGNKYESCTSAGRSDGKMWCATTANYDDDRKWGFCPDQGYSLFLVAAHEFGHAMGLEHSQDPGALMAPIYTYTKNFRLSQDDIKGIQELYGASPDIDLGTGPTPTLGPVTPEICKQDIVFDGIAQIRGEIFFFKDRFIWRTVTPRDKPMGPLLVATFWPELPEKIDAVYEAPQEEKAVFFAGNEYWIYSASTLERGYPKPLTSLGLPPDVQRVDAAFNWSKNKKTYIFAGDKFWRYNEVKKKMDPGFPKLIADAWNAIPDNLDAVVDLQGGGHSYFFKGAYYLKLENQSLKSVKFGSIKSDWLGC

[2] = biological target: T5, αvβ3 integrin (added to the legumain activity assays), P06756
T5 chain 1: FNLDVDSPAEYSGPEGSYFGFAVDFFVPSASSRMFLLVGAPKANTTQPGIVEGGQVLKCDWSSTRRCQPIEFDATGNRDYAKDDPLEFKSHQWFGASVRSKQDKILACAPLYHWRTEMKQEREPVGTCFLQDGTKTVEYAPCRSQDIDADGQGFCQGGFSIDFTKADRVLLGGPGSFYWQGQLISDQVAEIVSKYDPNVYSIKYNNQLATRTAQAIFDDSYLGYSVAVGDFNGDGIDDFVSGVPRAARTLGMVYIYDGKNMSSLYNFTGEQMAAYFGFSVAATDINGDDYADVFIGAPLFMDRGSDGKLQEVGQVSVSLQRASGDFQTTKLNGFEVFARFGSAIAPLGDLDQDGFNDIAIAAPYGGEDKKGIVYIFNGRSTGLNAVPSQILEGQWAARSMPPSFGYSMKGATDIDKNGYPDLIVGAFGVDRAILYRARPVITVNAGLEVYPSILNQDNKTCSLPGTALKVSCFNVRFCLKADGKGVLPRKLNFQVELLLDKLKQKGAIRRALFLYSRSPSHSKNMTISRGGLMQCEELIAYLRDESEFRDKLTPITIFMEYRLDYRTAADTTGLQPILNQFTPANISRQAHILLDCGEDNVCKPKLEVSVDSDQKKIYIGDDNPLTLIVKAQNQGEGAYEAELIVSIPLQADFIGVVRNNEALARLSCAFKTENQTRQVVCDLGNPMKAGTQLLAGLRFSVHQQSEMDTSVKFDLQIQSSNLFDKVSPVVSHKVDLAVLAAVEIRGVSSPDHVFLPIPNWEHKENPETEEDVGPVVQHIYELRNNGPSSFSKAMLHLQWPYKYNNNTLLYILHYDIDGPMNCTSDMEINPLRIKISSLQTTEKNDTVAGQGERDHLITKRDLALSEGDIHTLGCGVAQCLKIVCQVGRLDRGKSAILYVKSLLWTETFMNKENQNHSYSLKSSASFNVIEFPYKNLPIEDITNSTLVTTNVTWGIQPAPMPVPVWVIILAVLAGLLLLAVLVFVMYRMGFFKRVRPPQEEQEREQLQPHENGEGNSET
T5 chain 2: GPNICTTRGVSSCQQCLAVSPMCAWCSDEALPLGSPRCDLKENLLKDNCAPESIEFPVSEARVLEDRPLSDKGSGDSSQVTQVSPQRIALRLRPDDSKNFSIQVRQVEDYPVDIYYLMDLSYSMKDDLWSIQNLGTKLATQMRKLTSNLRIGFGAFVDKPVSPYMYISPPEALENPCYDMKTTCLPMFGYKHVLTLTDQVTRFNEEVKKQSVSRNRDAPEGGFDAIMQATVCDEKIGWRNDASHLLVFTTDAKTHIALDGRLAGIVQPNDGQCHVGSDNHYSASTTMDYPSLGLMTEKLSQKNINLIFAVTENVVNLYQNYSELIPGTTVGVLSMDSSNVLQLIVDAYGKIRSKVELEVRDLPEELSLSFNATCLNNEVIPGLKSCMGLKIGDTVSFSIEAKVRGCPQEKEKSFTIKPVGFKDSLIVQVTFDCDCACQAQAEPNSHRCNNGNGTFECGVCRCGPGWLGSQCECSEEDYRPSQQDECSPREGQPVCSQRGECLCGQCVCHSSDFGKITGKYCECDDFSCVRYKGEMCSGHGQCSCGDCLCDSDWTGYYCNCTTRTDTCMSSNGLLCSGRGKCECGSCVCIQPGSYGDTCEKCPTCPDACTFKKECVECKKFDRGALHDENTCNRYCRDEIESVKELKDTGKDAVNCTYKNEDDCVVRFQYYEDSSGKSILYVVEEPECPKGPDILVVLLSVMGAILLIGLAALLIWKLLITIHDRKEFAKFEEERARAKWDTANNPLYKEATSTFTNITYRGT

Molecule: cystatin
EC50 (µM) of LEG-3 for 50% cell death on Legumain+ 293 cells in the presence of cystatin (human legumain): 64.4 µM

B2: recombinant legumain (protein)
chain: T1 sequence
cleavage of caspase 9 and loss of caspase 9 activity (caspase 9, P55211): legumain efficiently inactivates caspase 9 and depletes the cell of pro-caspase 9
cathepsin B activity toward small peptidyl substrates (cathepsin B, P07858): cathepsin B activity toward small peptidyl substrates is not affected
zymogram: cleavage of MMP2 by legumain and legumain:αvβ3 (progelatinase A, P08253): legumain not only removes the pro-MMP2 propeptide but also cleaves MMP2 between its proteolytic domain and its integrin binding hemopexin domain
legumain amidolytic activity (hydrolysis of a substrate to a fluorescent product) [2]: binding of legumain to αvβ3 integrin can increase legumain activity nearly 100 fold

B5: LEG-3 (succinyl-Ala-Ala-Asn-Leu-doxorubicin) (peptide)
peptide: Suc-AANL-doxorubicin
modifications: not fully specified (residue 1); printed as succinyl-Ala-Ala-Asn-Leu-doxorubicin
EC50 (µM), amount required for 50% cell death, Legumain+ 293 cells (human legumain): 3.2 µM

Now from value to molecule:

pH of peak legumain activity in the legumain:αvβ3 complex [1]: 6 pH
Molecule: αvβ3 integrin (added to the legumain activity assays) (from UniProt P06756 31-1048; P05106 27-788) (receptor)

IC50, amidolytic activity assay of recombinant legumain with fluorescent substrate (recombinant legumain): ~21 nM
B1: AEPI-2 (Cbz-Ala-Ala-AzaAsn-CH=CH-COOEt) (peptide)
peptide: Cbz-Ala-Ala-[AzaAsn]-{CH:CH‑COOEt}
SMILES: CCOC(=O)/C=C/C(=O)N(CC(N)=O)NC(=O)[C@H](C)NC(=O)[C@H](C)NC(=O)OCc1ccccc1

IC50, amidolytic activity assay of recombinant legumain with fluorescent substrate (recombinant legumain): ~20 nM
B3: AEPI-1 (Cbz-Ala-Ala-AzaAsn-(S,S)-EPCOOEt) (peptide)
peptide: Cbz-Ala-Ala-[AzaAsn]-{(S,S)‑EPCOOEt}

IC50, amidolytic activity assay of recombinant legumain with fluorescent substrate (recombinant legumain): 34 nM
B4: AEPI-3 (Cbz-Ala-Ala-AzaAsn-CH=CH-COOBzl) (peptide)
peptide: Cbz-Ala-Ala-[AzaAsn]-{CH:CH‑COOBzl}

IC50, amidolytic activity assay of recombinant legumain with fluorescent substrate (recombinant legumain): 158 nM
B6: AEPI-4 (Cbz-Ala-Ala-AzaAsn-CH=CH-CON(CH3)Bzl) (peptide)
peptide: Cbz-Ala-Ala-[AzaAsn]-{CH:CH‑CON(CH3)Bzl}
